Assay [1] has as its target T1, MAGE-A12 peptide on HLA-C*07:01 (human).
T1 peptide: VRIGHLYIL
Put plainly: cytokine release.

For assay [2], the target named is T2, MAGE-A12 peptide on HLA-C*07:02 (human).
T2 peptide: VRIGHLYIL
Kind of assay: cytokine release.

For assay [3], the target named is T1, MAGE-A12 peptide on HLA-C*07:01. Put plainly: killing.

B1: anti-MAGE-A12 TCR FM8 (TCR, V domains shown)
Valpha: AQTVTQSQPEMSVQEAETVTLSCTYDTSESDYYLFWYKQPPSRQMILVIRQEAYKQQNATENRFSVNFQKAAKSFSLKISDSQLGDAAMYFCAYRSAQGGSEKLVFGKGTKLTVNP
Vbeta: ETGVTQTPRHLVMGMTNKKSLKCEQHLGHNAMYWYKQSAKKPLELMFVYSLEERVENNSVPSRFSPECPNSSHLFLHLHTLQPEDSALYLCASSQTTYYNEQFFGPGTRLTVL
In the case of B1, the binding result in assay [1] is reported as “no recognition”; in assay [2], “recognises”.

B2: anti-MAGE-A12 TCR 502 (TCR, V domains shown)
Valpha: GENVEQHPSTLSVQEGDSAVIKCTYSDSASNYFPWYKQELGKRPQLIIDIRSNVGEKKDQRIAVTLNKTAKHFSLHITETQPEDSAVYFCAASGATDKLIFGTGTRLQVFP
Vbeta: EADIYQTPRYLVIGTGKKITLECSQTMGHDKMYWYQQDPGMELHLIHYSYGVNSTEKGDLSSESTVSRIRTEHFPLTLESARPSHTSQYLCASSGGHEQYFGPGTRLTVT
As to B2, the binding result in assay [3] is “recognises”.

The values above are taken from US20220195008A1 (published 2022).
